Measurements from patent US20240425885.

How the values were obtained:
Experiment in all cases: cleavage_in_vitro
[1] = system: T1, OMNI-91 (metagenomic, unknown); conditions: TXTL; PAM NNGNRTNN
T1 sequence: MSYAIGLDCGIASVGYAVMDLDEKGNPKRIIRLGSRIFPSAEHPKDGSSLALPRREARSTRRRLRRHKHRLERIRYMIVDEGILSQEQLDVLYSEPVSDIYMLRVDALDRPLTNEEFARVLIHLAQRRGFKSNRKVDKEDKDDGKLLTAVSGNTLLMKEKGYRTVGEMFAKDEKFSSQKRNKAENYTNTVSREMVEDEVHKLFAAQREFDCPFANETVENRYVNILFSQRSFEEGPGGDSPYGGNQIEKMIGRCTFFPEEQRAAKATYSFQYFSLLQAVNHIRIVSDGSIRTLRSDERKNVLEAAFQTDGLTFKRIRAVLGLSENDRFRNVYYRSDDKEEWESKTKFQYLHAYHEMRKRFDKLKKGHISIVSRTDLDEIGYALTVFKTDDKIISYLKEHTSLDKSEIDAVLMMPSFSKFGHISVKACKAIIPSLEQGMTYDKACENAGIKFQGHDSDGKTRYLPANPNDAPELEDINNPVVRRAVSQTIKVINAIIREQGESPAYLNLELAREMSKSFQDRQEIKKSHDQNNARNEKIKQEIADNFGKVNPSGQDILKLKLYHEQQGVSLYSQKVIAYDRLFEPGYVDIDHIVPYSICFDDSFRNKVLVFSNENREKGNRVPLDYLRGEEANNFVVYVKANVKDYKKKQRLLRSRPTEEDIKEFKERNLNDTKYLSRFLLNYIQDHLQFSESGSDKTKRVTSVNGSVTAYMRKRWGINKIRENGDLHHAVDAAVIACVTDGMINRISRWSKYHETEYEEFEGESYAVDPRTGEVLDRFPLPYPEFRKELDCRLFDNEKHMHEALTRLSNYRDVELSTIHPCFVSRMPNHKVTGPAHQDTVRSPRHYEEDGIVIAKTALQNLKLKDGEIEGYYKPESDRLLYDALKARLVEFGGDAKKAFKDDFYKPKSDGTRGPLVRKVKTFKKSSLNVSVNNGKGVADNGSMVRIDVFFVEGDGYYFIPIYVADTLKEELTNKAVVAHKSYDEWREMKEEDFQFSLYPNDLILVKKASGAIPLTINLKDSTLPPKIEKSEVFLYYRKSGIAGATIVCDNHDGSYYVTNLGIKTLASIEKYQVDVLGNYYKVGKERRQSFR

[2] = system: T2, OMNI-129 (metagenomic, unknown); conditions: TXTL; PAM NNNNGAAA
T2 sequence: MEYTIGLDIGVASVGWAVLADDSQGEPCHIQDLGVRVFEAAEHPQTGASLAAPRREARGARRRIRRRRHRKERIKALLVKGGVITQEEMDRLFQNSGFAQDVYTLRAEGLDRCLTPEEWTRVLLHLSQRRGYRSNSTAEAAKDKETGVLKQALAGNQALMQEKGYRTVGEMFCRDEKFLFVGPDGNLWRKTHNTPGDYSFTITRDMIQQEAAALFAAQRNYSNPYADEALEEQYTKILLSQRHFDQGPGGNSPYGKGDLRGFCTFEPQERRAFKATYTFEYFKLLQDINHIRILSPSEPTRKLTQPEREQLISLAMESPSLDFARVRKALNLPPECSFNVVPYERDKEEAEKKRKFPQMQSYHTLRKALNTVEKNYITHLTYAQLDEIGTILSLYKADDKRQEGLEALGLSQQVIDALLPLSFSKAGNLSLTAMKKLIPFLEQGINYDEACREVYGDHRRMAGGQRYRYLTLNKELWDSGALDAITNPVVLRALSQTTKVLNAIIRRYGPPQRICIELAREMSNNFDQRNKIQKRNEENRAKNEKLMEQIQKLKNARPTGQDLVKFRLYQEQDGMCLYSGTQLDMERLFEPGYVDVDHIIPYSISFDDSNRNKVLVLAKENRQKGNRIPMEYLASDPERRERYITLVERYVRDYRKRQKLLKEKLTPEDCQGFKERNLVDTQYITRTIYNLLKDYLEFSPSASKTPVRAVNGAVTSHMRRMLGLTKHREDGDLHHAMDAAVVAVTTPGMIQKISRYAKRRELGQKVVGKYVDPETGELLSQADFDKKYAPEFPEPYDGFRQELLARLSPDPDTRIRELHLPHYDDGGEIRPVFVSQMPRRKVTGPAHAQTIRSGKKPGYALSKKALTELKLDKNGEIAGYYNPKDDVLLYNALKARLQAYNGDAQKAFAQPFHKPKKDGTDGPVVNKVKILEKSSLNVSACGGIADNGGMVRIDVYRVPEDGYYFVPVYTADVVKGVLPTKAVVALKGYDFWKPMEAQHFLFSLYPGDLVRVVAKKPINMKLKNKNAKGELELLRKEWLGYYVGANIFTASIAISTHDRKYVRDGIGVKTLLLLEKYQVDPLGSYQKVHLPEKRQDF

[3] = system: T3, OMNI-128 (metagenomic, unknown); conditions: TXTL; PAM NRYHCCNN
T3 sequence: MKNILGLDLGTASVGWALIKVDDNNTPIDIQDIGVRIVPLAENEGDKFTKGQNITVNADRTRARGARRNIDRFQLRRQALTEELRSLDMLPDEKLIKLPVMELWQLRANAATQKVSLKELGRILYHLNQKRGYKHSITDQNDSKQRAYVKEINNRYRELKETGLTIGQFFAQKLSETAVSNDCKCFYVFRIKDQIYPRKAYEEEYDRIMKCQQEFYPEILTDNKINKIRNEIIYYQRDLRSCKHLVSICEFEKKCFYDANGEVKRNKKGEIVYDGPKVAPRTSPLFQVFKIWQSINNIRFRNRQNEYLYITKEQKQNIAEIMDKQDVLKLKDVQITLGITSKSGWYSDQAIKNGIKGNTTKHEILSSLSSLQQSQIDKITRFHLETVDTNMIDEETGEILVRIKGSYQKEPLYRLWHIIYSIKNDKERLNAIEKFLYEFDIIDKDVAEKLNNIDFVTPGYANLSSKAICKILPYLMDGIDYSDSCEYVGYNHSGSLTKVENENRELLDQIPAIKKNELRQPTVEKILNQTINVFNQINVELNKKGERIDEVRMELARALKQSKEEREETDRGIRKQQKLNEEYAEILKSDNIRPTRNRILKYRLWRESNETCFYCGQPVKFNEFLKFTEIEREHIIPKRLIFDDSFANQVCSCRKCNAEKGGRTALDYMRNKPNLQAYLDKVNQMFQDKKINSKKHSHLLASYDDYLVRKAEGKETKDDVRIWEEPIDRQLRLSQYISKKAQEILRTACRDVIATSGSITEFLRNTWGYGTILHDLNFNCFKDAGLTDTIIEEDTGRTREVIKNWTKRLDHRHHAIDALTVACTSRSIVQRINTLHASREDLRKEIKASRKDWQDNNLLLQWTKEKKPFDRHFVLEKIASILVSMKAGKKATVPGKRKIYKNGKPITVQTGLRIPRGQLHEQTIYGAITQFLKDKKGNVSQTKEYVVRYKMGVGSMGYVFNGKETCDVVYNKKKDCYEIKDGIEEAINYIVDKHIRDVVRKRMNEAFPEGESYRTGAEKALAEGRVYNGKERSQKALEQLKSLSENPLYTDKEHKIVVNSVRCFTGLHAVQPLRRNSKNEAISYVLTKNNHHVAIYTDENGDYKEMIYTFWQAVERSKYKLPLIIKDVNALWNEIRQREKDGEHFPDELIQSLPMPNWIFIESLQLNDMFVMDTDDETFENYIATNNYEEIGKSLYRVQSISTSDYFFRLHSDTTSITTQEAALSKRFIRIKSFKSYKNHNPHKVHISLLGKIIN

[4] = system: T4, OMNI-131 (metagenomic, unknown); conditions: TXTL; PAM NRWRCCNN
T4 sequence: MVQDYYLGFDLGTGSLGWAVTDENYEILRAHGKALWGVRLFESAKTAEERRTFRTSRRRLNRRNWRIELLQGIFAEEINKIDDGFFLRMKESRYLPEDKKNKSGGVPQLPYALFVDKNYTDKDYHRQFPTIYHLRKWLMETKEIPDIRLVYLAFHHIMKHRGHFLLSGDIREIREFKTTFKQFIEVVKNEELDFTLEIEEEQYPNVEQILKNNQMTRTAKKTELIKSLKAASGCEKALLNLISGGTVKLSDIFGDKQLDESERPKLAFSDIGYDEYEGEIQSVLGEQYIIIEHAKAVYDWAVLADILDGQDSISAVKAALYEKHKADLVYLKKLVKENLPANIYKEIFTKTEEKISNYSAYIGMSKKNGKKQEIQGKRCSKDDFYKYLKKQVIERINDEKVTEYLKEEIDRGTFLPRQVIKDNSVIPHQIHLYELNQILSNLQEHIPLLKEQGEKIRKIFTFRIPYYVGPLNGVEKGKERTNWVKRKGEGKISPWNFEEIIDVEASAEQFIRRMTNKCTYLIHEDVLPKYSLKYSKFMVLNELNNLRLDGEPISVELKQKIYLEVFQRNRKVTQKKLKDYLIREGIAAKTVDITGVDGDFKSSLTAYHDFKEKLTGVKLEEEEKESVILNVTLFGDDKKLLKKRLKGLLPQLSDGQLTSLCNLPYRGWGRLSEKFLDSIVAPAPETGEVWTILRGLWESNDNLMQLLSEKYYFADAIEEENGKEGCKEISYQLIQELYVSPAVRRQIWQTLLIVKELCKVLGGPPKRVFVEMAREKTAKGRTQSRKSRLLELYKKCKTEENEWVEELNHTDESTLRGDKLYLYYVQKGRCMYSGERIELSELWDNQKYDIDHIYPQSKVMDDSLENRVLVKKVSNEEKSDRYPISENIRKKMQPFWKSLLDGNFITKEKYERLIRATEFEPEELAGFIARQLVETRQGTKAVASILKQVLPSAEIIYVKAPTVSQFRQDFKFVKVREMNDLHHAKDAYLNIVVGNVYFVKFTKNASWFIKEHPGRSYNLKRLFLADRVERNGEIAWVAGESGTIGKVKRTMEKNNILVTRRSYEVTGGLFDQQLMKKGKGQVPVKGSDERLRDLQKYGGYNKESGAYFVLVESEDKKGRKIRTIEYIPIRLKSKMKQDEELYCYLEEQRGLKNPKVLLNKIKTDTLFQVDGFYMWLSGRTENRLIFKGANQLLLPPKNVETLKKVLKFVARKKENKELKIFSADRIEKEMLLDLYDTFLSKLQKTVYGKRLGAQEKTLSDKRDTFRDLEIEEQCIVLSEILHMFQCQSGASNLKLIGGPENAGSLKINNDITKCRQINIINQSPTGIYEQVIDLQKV

GGAAGAGCAGAGCCUUGGUCUCGUUGUAGUCCCCUCGUAGUGAAAACUAUCAGGUCACUACAAUAAAGUAGAACACUGAAAAGCUCUGACGGCCCACUUUCCGUGGGUCGUCAUCUUUUUU / GGAAGAGCAGAGCCTTGGTCTCNNNNNNNN / NNNNNNNNGAGACCAAGGCTCTGCTCTTCC [T2 sgRNA 2 V1 ; T2 protospacer + 8N PAM library (pbPOS T2)]
activity (1-depletion score) [1]: 0.96

GGAAGAGCAGAGCCUUGGUCUCGUUGUAGUUCCCUAAUGUUGAAAGACAUUAGGUUACUGCGAUCAGGCAGUAUGCCUCAGAGCUCCGCCCUAACCACGUUUUGUGGUUGGGGCGUCUUUGCAUUUUUU / GGAAGAGCAGAGCCTTGGTCTCNNNNNNNN / NNNNNNNNGAGACCAAGGCTCTGCTCTTCC [T2 sgRNA 30 V1 ; T2 protospacer + 8N PAM library (pbPOS T2)]
activity (1-depletion score) [2]: 0.95

GGAAGAGCAGAGCCUUGGUCUCGUUGUGAUUUGCUGAAGAAAUUCAGCAAAUCACAAUAAGGAUUAUUCCGUUGUGAAAACAUUCAAGGCGGCGCAAGUCGCCUUUUUU / GGAAGAGCAGAGCCTTGGTCTCNNNNNNNN / NNNNNNNNGAGACCAAGGCTCTGCTCTTCC [T2 sgRNA 29 V1 ; T2 protospacer + 8N PAM library (pbPOS T2)]
activity (1-depletion score) [3]: 0.87

GGAAGAGCAGAGCCUUGGUCUCGUUUGAGAAUGAUGUAAGAAAUUACAUCAUAAGUUCAAAUAACGAUUUAUCGAAGACGCCGUUUAUAACGGCCCACAGUGAGUGGAAAGAAAGCUGUUGCUCAUAGGAGCAGCAGUUUUUU / GGAAGAGCAGAGCCTTGGTCTCNNNNNNNN / NNNNNNNNGAGACCAAGGCTCTGCTCTTCC [T2 sgRNA 31 V1 ; T2 protospacer + 8N PAM library (pbPOS T2)]
activity (1-depletion score) [4]: 0.95
